These results are taken from US20020151682A1 (UCB, published 2002).

This assay deals with T1, human tumour necrosis factor alpha (TNFα) (human, UniProt P01375 77-233).
T1 construct: also called human TNF; recombinant human TNFα
As to the kind of experiment: affinity; method not named at the sentence (BiaCore with captured hTNF40 and human TNF in flow is described at paragraph 169). The source says:
Following the injection of ligand, buffer was passed over the surface so that the dissociation could be measured.

T1 sequence (P01375 77-233 limits assumed): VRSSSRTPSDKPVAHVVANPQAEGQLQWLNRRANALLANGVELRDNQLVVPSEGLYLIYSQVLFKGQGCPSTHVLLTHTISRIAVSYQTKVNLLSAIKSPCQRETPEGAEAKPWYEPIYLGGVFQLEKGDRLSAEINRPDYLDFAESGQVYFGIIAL

B1: mouse monoclonal antibody hTNF40 (antibody, IgG2a, V domains shown)
VH: QIQLVQSGPELKKPGETVKISCKASGYVFTDYGMNWVKQAPGKAFKWMGWINTYIGEPIYVDDFKGRFAFSLETSASTAFLQINNLKNEDTATYFCARGYRSYAMDYWGQGTSVTVSS
VL: DIVMTQSQKFMSTSVGDRVSVTCKASQNVGTNVAWYQQKPGQSPKALIYSASFLYSGVPYRFTGSGSGTDFTLTISTVQSEDLAEYFCQQYNIYPLTFGAGTKLELKR
notes: The light chain constant region is kappa and the heavy chain constant region is IgG2a (mouse); also called murine hTNF40; the donor antibody
In the case of B1, the Kd is about 0.085 nM.
